Reference: PMC11341838 (Nature Communications, 2024)

Target: T1, Pf3D7 recombinant AMA1, full ectodomain (domain I, II and III) (P. falciparum (strain 3D7))
T1 chain: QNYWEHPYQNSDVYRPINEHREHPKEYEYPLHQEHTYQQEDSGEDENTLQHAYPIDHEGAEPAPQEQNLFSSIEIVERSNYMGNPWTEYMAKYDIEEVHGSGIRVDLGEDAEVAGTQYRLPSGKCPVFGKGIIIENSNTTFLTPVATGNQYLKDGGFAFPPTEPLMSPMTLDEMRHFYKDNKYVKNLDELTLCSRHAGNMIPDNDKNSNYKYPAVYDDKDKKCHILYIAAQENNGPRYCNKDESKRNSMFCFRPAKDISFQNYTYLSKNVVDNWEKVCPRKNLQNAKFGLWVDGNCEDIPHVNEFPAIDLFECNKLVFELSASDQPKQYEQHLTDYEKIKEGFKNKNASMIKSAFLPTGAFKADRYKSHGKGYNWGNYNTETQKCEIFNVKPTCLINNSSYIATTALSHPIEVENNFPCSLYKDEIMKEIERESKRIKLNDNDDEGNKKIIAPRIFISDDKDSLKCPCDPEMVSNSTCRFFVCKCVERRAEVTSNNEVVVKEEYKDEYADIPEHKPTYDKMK
Experiment: ELISA

- binding result: binds
B1: mAb 1F9 (antibody, V domains shown)
VH: EVQLQQSGAELLKPGASVKLSCIVSGFKIKDTSMHWVKQRPEQGLEWIGRIDPANDNSEYDPKFQGKATITADTSSNTAYLQLSSLTSEDTAVYYCTLSHFWGQGTTLTVSS
VL: SIVMTQTPKFLPVSAGDRVTIICKASQSVSNDVVWYQQKPGQSPKLLIYYASIRYTGVPDRFTGSGYGTDFTFTISTVQVEDLAVYFCQQGFSSPRTFGGGTKLEIN
